A word on the Kd: it is a measure of binding affinity in units of concentration.

The target in this assay is T1, tau peptide V1089–24.
T1 sequence (peptide, phosphoserine at Ser422; biotin (position not stated)): SSTGSIDMVDSPQLATLA
The assay can be described thus: BLI; biotinylated peptide V1089–24 (1 μg/ml) on streptavidin biosensors; 13 Fab concentrations in ForteBio's kinetics buffer; 600 s association, 600 s dissociation; steady state analysis.

Numbering of substitutions follows the chain as printed.

B1: Fab-dmCBTAU-22.1 (Fab, V domains shown)
VH: QVQLVQSGAEVKKPGAPVKVSCETSGYRFSDYFVHWVRQAPGQGPEWIGRIRPNSGGTKYAQKFQGRVTMTRDMSMNTAYMELSGLRSDDTAVYYCVRGHCDGTTCSRAYWGQGTLVTVSS
VL: DVVMTQSPLSLPVTPGEPASISCRSSQSLLHRSGHKYLHWYLQRPGQSPQVLIYLGSNRASGVPDRFSGSGSGTDFTLKISRVEAEDVGLYYCMQTLQTPWTFGQGTKVEIK
B1 gave a Kd of 240 nM.

B2: Fab-CBTAU-22.1 (Fab, V domains shown)
VH: B1 VH with F33N, R52S
VL: B1 VL
Regarding B2, the Kd was found to be 5600 nM.

The record behind these values is paper PMC6042391.
